Data published in paper PMC3136621 (Analytical chemistry, 2011).

Legend:
[1] = biological target: yeast alcohol dehydrogenase (ADH) from Saccharomyces cerevisiae (Saccharomyces cerevisiae) (UniProt P00330); experiment: native MS
native MS = biological target: the molecule itself; experiment: native MS

Molecule: yeast alcohol dehydrogenase (ADH) from Saccharomyces cerevisiae (from UniProt P00330 1-348) (enzyme)
- stoichiometry N [1]: 4

B1: Fenna-Matthews-Olson (FMO) antenna protein from the green sulfur bacterium Chlorobaculum tepidum (natural protein, UniProt Q46393 1-366, looked up)
chain: MALFGSNDVTTAHSDYEIVLEGGSSSWGKVKARAKVNAPPASPLLPADCDVKLNVKPLDPAKGFVRISAVFESIVDSTKNKLTIEADIANETKERRISVGEGMVSVGDFSHTFSFEGSVVNLFYYRSDAVRRNVPNPIYMQGRQFHDILMKVPLDNNDLIDTWEGTVKAIGSTGAFNDWIRDFWFIGPAFTALNEGGQRISRIEVNGLNTESGPKGPVGVSRWRFSHGGSGMVDSISRWAELFPSDKLNRPAQVEAGFRSDSQGIEVKVDGEFPGVSVDAGGGLRRILNHPLIPLVHHGMVGKFNNFNVDAQLKVVLPKGYKIRYAAPQYRSQNLEEYRWSGGAYARWVEHVCKGGVGQFEILYAQ
- stoichiometry N (native MS): 3
